Experimental data taken from PMC8399232, “Soy Isoflavones Inhibit Both GPIb-IX Signaling and αIIbβ3 Outside-In Signaling via 14-3-3ζ in Platelet” (Molecules, 2021).

Target: T1, integrin β3 (endogenous, platelets) (mouse (endogenous in platelets), UniProt O54890 26-787)
T1 construct: integrin β3 endogenous in platelets, precipitated with an anti-integrin β3 antibody; platelets were prepared from mice; In platelets β3 stands in the integrin αIIbβ3; also called platelet integrin β3; β3 integrin; source: endogenous, platelet lysate (NP-40 lysis buffer)
T1 sequence (looked up): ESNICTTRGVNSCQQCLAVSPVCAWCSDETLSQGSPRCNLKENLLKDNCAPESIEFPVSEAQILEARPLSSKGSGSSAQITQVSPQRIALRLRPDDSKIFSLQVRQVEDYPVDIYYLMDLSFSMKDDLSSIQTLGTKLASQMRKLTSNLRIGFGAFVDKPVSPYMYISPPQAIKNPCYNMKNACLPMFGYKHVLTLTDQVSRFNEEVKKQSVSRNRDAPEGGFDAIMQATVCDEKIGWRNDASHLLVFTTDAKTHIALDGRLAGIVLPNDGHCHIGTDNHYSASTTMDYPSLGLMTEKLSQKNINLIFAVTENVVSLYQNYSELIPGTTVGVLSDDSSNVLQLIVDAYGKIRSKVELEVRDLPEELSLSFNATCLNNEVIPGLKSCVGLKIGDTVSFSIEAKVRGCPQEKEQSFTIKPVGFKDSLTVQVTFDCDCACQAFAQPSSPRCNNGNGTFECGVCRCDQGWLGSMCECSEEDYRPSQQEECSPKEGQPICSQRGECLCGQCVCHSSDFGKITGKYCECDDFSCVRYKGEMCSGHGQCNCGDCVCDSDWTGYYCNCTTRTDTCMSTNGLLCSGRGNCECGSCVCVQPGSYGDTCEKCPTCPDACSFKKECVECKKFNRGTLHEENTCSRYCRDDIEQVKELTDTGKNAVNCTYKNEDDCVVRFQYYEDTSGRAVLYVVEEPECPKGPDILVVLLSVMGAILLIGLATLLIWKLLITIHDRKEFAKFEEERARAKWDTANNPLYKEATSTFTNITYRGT
Assay: co-IP; platelets pretreated with 0.1 % DMSO, 100 μM isoflavones or 3 μM SQ29548, stimulated with 0.04 U/mL thrombin, lysed in NP-40 lysis buffer; precipitated with integrin β3 antibody and protein A magnetic beads overnight at 4 °C; western blot
Settings: partners not purified

B1: 14-3-3ζ (endogenous, platelets) (natural protein, mouse (endogenous in platelets), UniProt P63101 1-245, looked up)
chain: MDKNELVQKAKLAEQAERYDDMAACMKSVTEQGAELSNEERNLLSVAYKNVVGARRSSWRVVSSIEQKTEGAEKKQQMAREYREKIETELRDICNDVLSLLEKFLIPNASQPESKVFYLKMKGDYYRYLAEVAAGDDKKGIVDQSQQAYQEAFEISKKEMQPTHPIRLGLALNFSVFYYEILNSPEKACSLAKTAFDEAIAELDTLSEESYKDSTLIMQLLRDNLTLWTSDTQGDEAEAGEGGEN
notes: 14-3-3ζ endogenous in platelets; platelets were prepared from mice; The methods tell of platelets prepared from wild type and GPIbα deficient mice only; the species is not repeated for the co-immunoprecipitation; source: endogenous, platelet lysate (NP-40 lysis buffer)
fold increase of co-precipitated 14-3-3ζ on platelet activation against resting platelets: 2.7 fold
